Experimental data reported in IntAct's records for PubMed 25503564.

B1: Centrosomal protein of 68 kDa (Homo sapiens), Q76N32 (parent)
chain: MALGEEKAEAEASEDTKAQSYGRGSCRERELDIPGPMSGEQPPRLEAEGGLISPVWGAEGIPAPTCWIGTDPGGPSRAHQPQASDANREPVAERSEPALSGLPPATMGSGDLLLSGESQVEKTKLSSSEEFPQTLSLPRTTTICSGHDADTEDDPSLADLPQALDLSQQPHSSGLSCLSQWKSVLSPGSAAQPSSCSISASSTGSSLQGHQERAEPRGGSLAKVSSSLEPVVPQEPSSVVGLGPRPQWSPQPVFSGGDASGLGRRRLSFQAEYWACVLPDSLPPSPDRHSPLWNPNKEYEDLLDYTYPLRPGPQLPKHLDSRVPADPVLQDSGVDLDSFSVSPASTLKSPTNVSPNCPPAEATALPFSGPREPSLKQWPSRVPQKQGGMGLASWSQLASTPRAPGSRDARWERREPALRGAKDRLTIGKHLDMGSPQLRTRDRGWPSPRPEREKRTSQSARRPTCTESRWKSEEEVESDDEYLALPARLTQVSSLVSYLGSISTLVTLPTGDIKGQSPLEVSDSDGPASFPSSSSQSQLPPGAALQGSGDPEGQNPCFLRSFVRAHDSAGEGSLGSSQALGVSSGLLKTRPSLPARLDRWPFSDPDVEGQLPRKGGEQGKESLVQCVKTFCCQLEELICWLYNVADVTDHGTAARSNLTSLKSSLQLYRQFKKDIDEHQSLTESVLQKGEILLQCLLENTPVLEDVLGRIAKQSGELESHADRLYDSILASLDMLAGCTLIPDKKPMAAMEHPCEGV

Variants of: B1
Settings: with fbw1a_human BTRC

Row | Variant | effect of a mutation on the interaction
1 | S332A | disrupting interaction strength
2 | D337A | decreasing interaction strength
3 | S332A;D337A | disrupting interaction strength
